One series addresses RARg:RXRa (Homo sapiens, UniProt P13631;P19793 full;full). As to the kind of experiment: no ligand; PBM; 270 nM : 90 nM RXRa; PBS pH 7.4, 2% milk, 0.02% Triton X-100, 1 mM DTT, BSA, 0.4 mg/ml salmon testes DNA. The conditions noted are these: tags: His kept;His cleaved; copies: 1;1; label: surface-attached array probe. Put shortly: (§1)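 Probes were double-stranded and carried 34-nt variable regions with direct-repeat seeds, single-nucleotide variants, half-site ablations and random human genomic background sequences, printed on custom Agilent 4×180K protein-binding microarrays. Arrays were incubated 1 h with ligand-free nuclear receptor dimers in PBS pH 7.4, 2% milk, 0.02% Triton X-100, 1 mM DTT, 0.2 mg/mL BSA and 0.4 mg/ml salmon testes DNA. Antibodies against each partner (one per run) detected binding, and scanned fluorescence was regression-normalized. Binding z-scores use the random background probes as reference.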

Another series concerns the target RXRa (Homo sapiens, UniProt P19793). As to the kind of experiment: no ligand; PBM; 180 nM; PBS pH 7.4, 2% milk, 0.02% Triton X-100, 1 mM DTT, BSA, 0.4 mg/ml salmon testes DNA. The settings on record: tags: His cleaved; chain copies: 2; label: surface-attached array probe.
The target in the next series is FXR:RXRa (Homo sapiens, UniProt Q96RI1;P19793 full;full). As to the kind of experiment: no ligand; PBM; 270 nM : 90 nM RXRa; PBS pH 7.4, 2% milk, 0.02% Triton X-100, 1 mM DTT, BSA, 0.4 mg/ml salmon testes DNA. The settings on record: tags: His kept;His cleaved; copies: 1;1; label: surface-attached array probe. In short, it runs like this:
as §1

Another series addresses PPARa:RXRa (Homo sapiens, UniProt Q07869;P19793 full;full). Described as above. The conditions noted are these: tags: GST kept;His cleaved; copies: 1;1; label: surface-attached array probe. In short, it runs like this: as §1
The target of another series is VDR:RXRa (Homo sapiens, UniProt P11473;P19793 full;full). The series is described as above. The settings on record: tags: His kept;His cleaved; copies: 1;1; label: surface-attached array probe. In short, it runs like this: as §1
Chain of VDR:RXRa (P11473 whole entry, chain 1 of 2): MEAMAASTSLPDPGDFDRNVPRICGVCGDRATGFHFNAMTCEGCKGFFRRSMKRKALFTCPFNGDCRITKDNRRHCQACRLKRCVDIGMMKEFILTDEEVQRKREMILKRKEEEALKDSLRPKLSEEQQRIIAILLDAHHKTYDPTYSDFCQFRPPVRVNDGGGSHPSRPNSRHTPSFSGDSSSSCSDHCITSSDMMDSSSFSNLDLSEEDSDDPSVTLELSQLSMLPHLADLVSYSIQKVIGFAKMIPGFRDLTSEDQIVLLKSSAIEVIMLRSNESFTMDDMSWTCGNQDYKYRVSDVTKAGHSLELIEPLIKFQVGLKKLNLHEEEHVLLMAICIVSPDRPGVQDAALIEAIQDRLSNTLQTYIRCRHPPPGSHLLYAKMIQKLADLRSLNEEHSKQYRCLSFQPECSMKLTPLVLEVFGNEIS
Chain of VDR:RXRa (P19793 whole entry, chain 2 of 2): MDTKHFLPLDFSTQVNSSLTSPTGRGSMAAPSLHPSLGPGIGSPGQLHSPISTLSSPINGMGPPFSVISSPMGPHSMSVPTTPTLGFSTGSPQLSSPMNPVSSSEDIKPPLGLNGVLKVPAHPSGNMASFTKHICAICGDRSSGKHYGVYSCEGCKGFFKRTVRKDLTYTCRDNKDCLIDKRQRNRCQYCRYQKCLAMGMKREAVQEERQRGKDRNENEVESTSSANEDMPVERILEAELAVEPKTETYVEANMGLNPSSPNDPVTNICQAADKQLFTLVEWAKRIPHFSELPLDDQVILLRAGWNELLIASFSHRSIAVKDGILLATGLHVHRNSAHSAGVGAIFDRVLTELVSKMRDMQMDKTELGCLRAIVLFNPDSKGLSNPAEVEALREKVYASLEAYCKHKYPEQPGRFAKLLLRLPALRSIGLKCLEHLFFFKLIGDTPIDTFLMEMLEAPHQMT
In the next series the target is RARb:RXRa (Homo sapiens, UniProt P10826;P19793 full;full). The series is described as above. The settings on record: tags: His kept;His cleaved; copies: 1;1; label: surface-attached array probe. Put shortly: as §1
Chain of RARb:RXRa (P10826 whole entry, chain 1 of 2): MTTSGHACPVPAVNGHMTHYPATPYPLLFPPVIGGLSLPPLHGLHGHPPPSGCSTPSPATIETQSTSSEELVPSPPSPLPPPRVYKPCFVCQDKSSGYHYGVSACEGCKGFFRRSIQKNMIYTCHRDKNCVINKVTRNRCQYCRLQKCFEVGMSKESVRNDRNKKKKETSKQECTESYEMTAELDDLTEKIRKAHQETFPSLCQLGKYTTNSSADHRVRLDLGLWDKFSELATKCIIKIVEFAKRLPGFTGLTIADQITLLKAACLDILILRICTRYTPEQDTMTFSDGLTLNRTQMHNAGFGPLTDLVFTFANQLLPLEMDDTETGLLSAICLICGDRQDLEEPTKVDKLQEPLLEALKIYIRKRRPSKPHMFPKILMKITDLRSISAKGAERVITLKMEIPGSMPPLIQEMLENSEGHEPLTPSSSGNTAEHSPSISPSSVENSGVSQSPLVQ
Chain of RARb:RXRa (P19793 whole entry, chain 2 of 2): as the sequence (P19793 whole entry, chain 2 of 2) above

Chain of FXR:RXRa (Q96RI1 whole entry, chain 1 of 2): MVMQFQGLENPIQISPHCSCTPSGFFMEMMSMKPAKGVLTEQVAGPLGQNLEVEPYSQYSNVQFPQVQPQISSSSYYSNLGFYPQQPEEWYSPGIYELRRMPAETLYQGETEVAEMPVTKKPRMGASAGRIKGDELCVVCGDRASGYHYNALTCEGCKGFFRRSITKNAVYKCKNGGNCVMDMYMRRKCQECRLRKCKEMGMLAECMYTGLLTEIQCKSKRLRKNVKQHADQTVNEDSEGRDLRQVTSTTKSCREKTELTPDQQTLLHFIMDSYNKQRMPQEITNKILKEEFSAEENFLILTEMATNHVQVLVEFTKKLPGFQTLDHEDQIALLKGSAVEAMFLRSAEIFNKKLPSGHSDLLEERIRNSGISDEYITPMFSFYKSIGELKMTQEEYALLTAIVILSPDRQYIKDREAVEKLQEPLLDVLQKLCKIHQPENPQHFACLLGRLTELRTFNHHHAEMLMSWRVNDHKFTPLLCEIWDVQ
Chain of FXR:RXRa (P19793 whole entry, chain 2 of 2): as the sequence (P19793 whole entry, chain 2 of 2) above
Chain of PPARa:RXRa (Q07869 whole entry, chain 1 of 2): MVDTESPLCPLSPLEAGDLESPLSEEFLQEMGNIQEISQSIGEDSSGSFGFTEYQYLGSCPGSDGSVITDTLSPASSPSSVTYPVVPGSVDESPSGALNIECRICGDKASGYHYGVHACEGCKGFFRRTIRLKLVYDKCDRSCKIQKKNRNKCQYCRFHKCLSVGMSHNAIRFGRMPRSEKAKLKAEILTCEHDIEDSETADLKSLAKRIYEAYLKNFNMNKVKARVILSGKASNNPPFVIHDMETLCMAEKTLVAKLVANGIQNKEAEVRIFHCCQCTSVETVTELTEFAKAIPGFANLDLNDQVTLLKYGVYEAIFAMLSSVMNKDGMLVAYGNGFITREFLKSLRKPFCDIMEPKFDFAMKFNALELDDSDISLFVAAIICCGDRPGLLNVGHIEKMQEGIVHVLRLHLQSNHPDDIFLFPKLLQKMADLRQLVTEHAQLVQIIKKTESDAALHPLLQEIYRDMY
Chain of PPARa:RXRa (P19793 whole entry, chain 2 of 2): as the sequence (P19793 whole entry, chain 2 of 2) above
Chain of RXRa (P19793 whole entry): as the sequence (P19793 whole entry, chain 2 of 2) above
Chain of RARg:RXRa (P13631 whole entry, chain 1 of 2): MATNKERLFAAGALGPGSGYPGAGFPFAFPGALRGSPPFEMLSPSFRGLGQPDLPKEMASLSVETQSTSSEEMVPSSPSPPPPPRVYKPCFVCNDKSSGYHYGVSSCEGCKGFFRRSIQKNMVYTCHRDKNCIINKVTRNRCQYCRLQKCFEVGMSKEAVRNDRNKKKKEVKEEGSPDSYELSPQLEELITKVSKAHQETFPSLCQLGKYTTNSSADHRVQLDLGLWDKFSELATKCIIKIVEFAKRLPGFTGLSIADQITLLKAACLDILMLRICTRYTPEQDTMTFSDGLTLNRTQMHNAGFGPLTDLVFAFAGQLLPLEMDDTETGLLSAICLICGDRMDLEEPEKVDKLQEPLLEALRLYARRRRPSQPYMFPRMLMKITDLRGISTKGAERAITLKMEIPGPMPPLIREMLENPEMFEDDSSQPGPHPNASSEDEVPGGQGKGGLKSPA
Chain of RARg:RXRa (P19793 whole entry, chain 2 of 2): as the sequence (P19793 whole entry, chain 2 of 2) above

B1: NRC3_random_hg19_248_o1 (dsDNA)
DNA 1: GCGTGTTCTACTGTACTGCAGCTGAGCCGACACTCAGCGATTGACAGCGTAGAATGAAGG
DNA 2: CCTTCATTCTACGCTGTCAATCGCTGAGTGTCGGCTCAGCTGCAGTACAGTAGAACACGC
Take B1: the binding signal was -0.34 PBM z-score against 500 random probes with RARg:RXRa and -0.43 PBM z-score against 500 random probes with RXRa.

B2: NRC3_wobSeed13_DR0_A8G_o1 (dsDNA)
DNA 1: GCCGTCCGAGGTCAAGGTCAGTGAAAGAGACTCGAAGCGATTGACAGCGTAGAATGAAGG
DNA 2: CCTTCATTCTACGCTGTCAATCGCTTCGAGTCTCTTTCACTGACCTTGACCTCGGACGGC
B2: the binding signal with FXR:RXRa is 8.4 PBM z-score against 500 random probes; in the series with PPARa:RXRa it was 6.49 PBM z-score against 500 random probes; with RARg:RXRa, 7.45 PBM z-score against 500 random probes; in the series with RXRa it was 8 PBM z-score against 500 random probes.

B3: NRC3_wobSeed28_DR1_T26G_o1 (dsDNA)
DNA 1: GCCCTACTGGGCCAAAGGTCATTGAGTCCAATGCTCGCGATTGACAGCGTAGAATGAAGG
DNA 2: CCTTCATTCTACGCTGTCAATCGCGAGCATTGGACTCAATGACCTTTGGCCCAGTAGGGC
With B3, the binding signal with VDR:RXRa was 7.34 PBM z-score against 500 random probes.

B4: NRC3_wobSeed95_DR3_G12T_o1 (dsDNA)
DNA 1: GCAGAACGAGGTCAATGAGTTGATAGCACGGGTGGCGCGATTGACAGCGTAGAATGAAGG
DNA 2: CCTTCATTCTACGCTGTCAATCGCGCCACCCGTGCTATCAACTCATTGACCTCGTTCTGC
For the molecule B4, the binding signal with VDR:RXRa is 7.63 PBM z-score against 500 random probes.

B5: NRC3_wobSeed27_DR1_G22C_o1 (dsDNA)
DNA 1: GCACTCGGAGGACAAAGGTCACAGCTACGCCAGTGAGCGATTGACAGCGTAGAATGAAGG
DNA 2: CCTTCATTCTACGCTGTCAATCGCTCACTGGCGTAGCTGTGACCTTTGTCCTCCGAGTGC
For B5, the binding signal with RARg:RXRa was 7.47 PBM z-score against 500 random probes; with RXRa, 8.07 PBM z-score against 500 random probes.

B6: NRC3_random_hg19_63_o1 (dsDNA)
DNA 1: GCTTTCAAGGCAGTAAGAGTTTGCTGTGCATCAGCTGCGATTGACAGCGTAGAATGAAGG
DNA 2: CCTTCATTCTACGCTGTCAATCGCAGCTGATGCACAGCAAACTCTTACTGCCTTGAAAGC
For the molecule B6, the figures for the binding signal with RARb:RXRa and in the series with RXRa were -0.61 PBM z-score against 500 random probes and -1.05 PBM z-score against 500 random probes, respectively.

B7: NRC3_random_hg19_45_o1 (dsDNA)
DNA 1: GCAAACACAAAGTTTGGGCTGCCTTCTCTAGAGATTGCGATTGACAGCGTAGAATGAAGG
DNA 2: CCTTCATTCTACGCTGTCAATCGCAATCTCTAGAGAAGGCAGCCCAAACTTTGTGTTTGC
On to B7, for which the binding signal with RARb:RXRa is -0.19 PBM z-score against 500 random probes; with RXRa it was -0.51 PBM z-score against 500 random probes.

B8: NRC3_wobSeed109_DR4_T15C_o1 (dsDNA)
DNA 1: GCCGTCCAAGGTCACAGGAGGTCAGTGAAGACAGATGCGATTGACAGCGTAGAATGAAGG
DNA 2: CCTTCATTCTACGCTGTCAATCGCATCTGTCTTCACTGACCTCCTGTGACCTTGGACGGC
For the molecule B8, the results for the binding signal with RARb:RXRa, in the series with RARg:RXRa and in the series with RXRa were 5.7 PBM z-score against 500 random probes, 7.39 PBM z-score against 500 random probes and 7.9 PBM z-score against 500 random probes, respectively.

B9: NRC3_wobSeed77_DR3_G20T_o1 (dsDNA)
DNA 1: GCACTTACGGGTCAACGAGTTTATAGCACGCGTATAGCGATTGACAGCGTAGAATGAAGG
DNA 2: CCTTCATTCTACGCTGTCAATCGCTATACGCGTGCTATAAACTCGTTGACCCGTAAGTGC
With B9, in the series with VDR:RXRa, the binding signal was 8.27 PBM z-score against 500 random probes.

B10: NRC3_random_hg19_443_o1 (dsDNA)
DNA 1: GCTAGTACTTGGTCCATAGCACTACTACTCACTTTGGCGATTGACAGCGTAGAATGAAGG
DNA 2: CCTTCATTCTACGCTGTCAATCGCCAAAGTGAGTAGTAGTGCTATGGACCAAGTACTAGC
Consider B10, for which the figures for the binding signal with RARb:RXRa, with PPARa:RXRa and in the series with RXRa were -0.05 PBM z-score against 500 random probes, -0.32 PBM z-score against 500 random probes and 0.04 PBM z-score against 500 random probes, respectively.

B11: NRC3_wobSeed74_DR3_T9G_o1 (dsDNA)
DNA 1: GCTCTAGTGGGTCACGGAGGTCACACACGACGGGTAGCGATTGACAGCGTAGAATGAAGG
DNA 2: CCTTCATTCTACGCTGTCAATCGCTACCCGTCGTGTGTGACCTCCGTGACCCACTAGAGC
Turning to B11, in the series with VDR:RXRa, the binding signal was 7.63 PBM z-score against 500 random probes.

B12: NRC3_wobSeed63_DR2_T8G_o1 (dsDNA)
DNA 1: GCCGAACGAGGTCACCAGGACAGTGAAGAGGTTGGAGCGATTGACAGCGTAGAATGAAGG
DNA 2: CCTTCATTCTACGCTGTCAATCGCTCCAACCTCTTCACTGTCCTGGTGACCTCGTTCGGC
In the case of B12, the binding signal with RARb:RXRa is 5.63 PBM z-score against 500 random probes; in the series with FXR:RXRa, 7.97 PBM z-score against 500 random probes; in the series with PPARa:RXRa it was 6.82 PBM z-score against 500 random probes; with RXRa, 7.78 PBM z-score against 500 random probes.

B13: NRC3_wobSeed82_DR3_G22C_o1 (dsDNA)
DNA 1: GCATCGAAAGGTCGACGAGGTCAGTATACACCGTTTGCGATTGACAGCGTAGAATGAAGG
DNA 2: CCTTCATTCTACGCTGTCAATCGCAAACGGTGTATACTGACCTCGTCGACCTTTCGATGC
In the case of B13, the binding signal in the series with VDR:RXRa is 7.66 PBM z-score against 500 random probes.

B14: NRC3_random_hg19_226_o1 (dsDNA)
DNA 1: GCCATCCCATTTCTCTTCCCAAGGGATTTGAAAGAGGCGATTGACAGCGTAGAATGAAGG
DNA 2: CCTTCATTCTACGCTGTCAATCGCCTCTTTCAAATCCCTTGGGAAGAGAAATGGGATGGC
For B14, the binding signal was -0.16 PBM z-score against 500 random probes in the series with RARg:RXRa and -0.08 PBM z-score against 500 random probes with RXRa.

B15: NRC3_wobSeed81_DR3_A13C_o1 (dsDNA)
DNA 1: GCATCTCTAGGTCACCAAGTTCAGTGAATGCCGAACGCGATTGACAGCGTAGAATGAAGG
DNA 2: CCTTCATTCTACGCTGTCAATCGCGTTCGGCATTCACTGAACTTGGTGACCTAGAGATGC
For the molecule B15, in the series with VDR:RXRa, the binding signal is 7.59 PBM z-score against 500 random probes.

B16: NRC3_wobSeed94_DR3_G23A_o1 (dsDNA)
DNA 1: GCCTACCAAGGTGAACAAGGTCATTGATTACTATTCGCGATTGACAGCGTAGAATGAAGG
DNA 2: CCTTCATTCTACGCTGTCAATCGCGAATAGTAATCAATGACCTTGTTCACCTTGGTAGGC
Regarding B16, the binding signal in the series with VDR:RXRa was 7.03 PBM z-score against 500 random probes.

B17: NRC3_random_hg19_375_o1 (dsDNA)
DNA 1: GCCAGAAGAGGAGAAGACACATAAGAAGAGGAAGTCGCGATTGACAGCGTAGAATGAAGG
DNA 2: CCTTCATTCTACGCTGTCAATCGCGACTTCCTCTTCTTATGTGTCTTCTCCTCTTCTGGC
With B17, the binding signal with FXR:RXRa is 0.5 PBM z-score against 500 random probes; with RXRa, 0.13 PBM z-score against 500 random probes.

B18: NRC3_wobSeed53_DR2_C8A_o1 (dsDNA)
DNA 1: GCCCTTAAGGGTCACGAGGTTATAGCACGACGAGCGGCGATTGACAGCGTAGAATGAAGG
DNA 2: CCTTCATTCTACGCTGTCAATCGCCGCTCGTCGTGCTATAACCTCGTGACCCTTAAGGGC
Turning to B18, the binding signal with RARb:RXRa is 6 PBM z-score against 500 random probes; in the series with FXR:RXRa it was 8.42 PBM z-score against 500 random probes; with PPARa:RXRa it was 7.03 PBM z-score against 500 random probes; with RARg:RXRa, 7.41 PBM z-score against 500 random probes; in the series with RXRa it was 8.38 PBM z-score against 500 random probes.

B19: NRC3_random_hg19_114_o1 (dsDNA)
DNA 1: GCCAAGGCAGCCAGAACTGATGATTGCACTGTGTGGGCGATTGACAGCGTAGAATGAAGG
DNA 2: CCTTCATTCTACGCTGTCAATCGCCCACACAGTGCAATCATCAGTTCTGGCTGCCTTGGC
For the molecule B19, the binding signal was -1.11 PBM z-score against 500 random probes with RARb:RXRa and -0.24 PBM z-score against 500 random probes with RXRa.

B20: NRC3_wobSeed73_DR3_G20T_o1 (dsDNA)
DNA 1: GCCAAACTAGGTCACAGAGTTCAAAGTCCGTGCGTAGCGATTGACAGCGTAGAATGAAGG
DNA 2: CCTTCATTCTACGCTGTCAATCGCTACGCACGGACTTTGAACTCTGTGACCTAGTTTGGC
For B20, the binding signal with VDR:RXRa was 8.45 PBM z-score against 500 random probes.
